Experimental data published in the supplement of paper PMC10567573.

B1: ZNF263 (parent)
chain: EKPYKCPECGEIFAHSSNLLRHQR

Variants of: B1
Experiment: protein stability index of a GFP-peptide fusion (GPS, HEK-293T) (PSI 1-6); higher = more stable
Conditions: c terminus: a fixed tail appended
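Note: lentivirally expressed fusions sorted by FACS into six bins by GFP to DsRed ratio, PSI derived from sequencing read proportions per bin multiplied by bin number.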

Going from EKPYKCPECGEIFAHSSPLLRHQR [N18P] to EKPYKCPECGEIFAHSSSLLRHQR [N18S], the protein stability index rises from 2.55 to 4.02.

Going from EKPYKCPECGEIFAHSSTLLRHQR [N18T] to EKPYKCPECGEIFAHSSVLLRHQR [N18V], the protein stability index rises from 2.76 to 4.54.

Compared with EKPYKCPECGEIFAHSSWLLRHQR [N18W], EKPYKCPECGEIFAHSSYLLRHQR [N18Y] is higher in protein stability index: 2.06 for the first, 3.37 for the second.

Compared with EKPYKCPECGEIFAHSSNALRHQR [L19A], EKPYKCPECGEIFAHSSNCLRHQR [L19C] is higher in protein stability index: 1.84 for the first, 4.49 for the second.

First: EKPYKCPECGEIFAHSSNDLRHQR [L19D]
Second: EKPYKCPECGEIFAHSSNELRHQR [L19E]
The protein stability index of the first is higher: 2.78 for the first, 1.91 for the second.

Going from EKPYKCPECGEIFAHSSNFLRHQR [L19F] to EKPYKCPECGEIFAHSSNHLRHQR [L19H], the protein stability index rises from 2.68 to 3.63.

First: EKPYKCPECGEIFAHSSNILRHQR [L19I]
Second: EKPYKCPECGEIFAHSSNKLRHQR [L19K]
The protein stability index of the first is lower: 1.8 for the first, 2.73 for the second.

Going from EKPYKCPECGEIFAHSSNMLRHQR [L19M] to EKPYKCPECGEIFAHSSNNLRHQR [L19N], the protein stability index falls from 2.38 to 1.64.

Compared with EKPYKCPECGEIFAHSSNPLRHQR [L19P], EKPYKCPECGEIFAHSSNQLRHQR [L19Q] is lower in protein stability index: 2.18 for the first, 1.78 for the second.

Going from EKPYKCPECGEIFAHSSNSLRHQR [L19S] to EKPYKCPECGEIFAHSSNTLRHQR [L19T], the protein stability index falls from 2.61 to 2.16.

First: EKPYKCPECGEIFAHSSNVLRHQR [L19V]
Second: EKPYKCPECGEIFAHSSNYLRHQR [L19Y]
The protein stability index of the first is higher: 2.92 for the first, 2.54 for the second.

Going from EKPYKCPECGEIFAHSSNLARHQR [L20A] to EKPYKCPECGEIFAHSSNLCRHQR [L20C], the protein stability index rises from 1.79 to 4.11.

Compared with EKPYKCPECGEIFAHSSNLDRHQR [L20D], EKPYKCPECGEIFAHSSNLERHQR [L20E] is lower in protein stability index: 3.29 for the first, 2.75 for the second.

First: EKPYKCPECGEIFAHSSNLFRHQR [L20F]
Second: EKPYKCPECGEIFAHSSNLGRHQR [L20G]
The protein stability index of the first is lower: 1.78 for the first, 2.29 for the second.

Compared with EKPYKCPECGEIFAHSSNLHRHQR [L20H], EKPYKCPECGEIFAHSSNLIRHQR [L20I] is lower in protein stability index: 3.79 for the first, 2.04 for the second.

First: EKPYKCPECGEIFAHSSNLKRHQR [L20K]
Second: EKPYKCPECGEIFAHSSNLMRHQR [L20M]
The protein stability index of the first is higher: 2.62 for the first, 2.6 for the second.

Compared with EKPYKCPECGEIFAHSSNLNRHQR [L20N], EKPYKCPECGEIFAHSSNLPRHQR [L20P] is higher in protein stability index: 1.59 for the first, 1.84 for the second.

Compared with EKPYKCPECGEIFAHSSNLQRHQR [L20Q], EKPYKCPECGEIFAHSSNLRRHQR [L20R] is lower in protein stability index: 2.96 for the first, 2.59 for the second.

Going from EKPYKCPECGEIFAHSSNLTRHQR [L20T] to EKPYKCPECGEIFAHSSNLVRHQR [L20V], the protein stability index falls from 2.66 to 1.87.

Going from EKPYKCPECGEIFAHSSNLYRHQR [L20Y] to EKPYKCPECGEIFAHSSNLLAHQR [R21A], the protein stability index rises from 2.44 to 3.84.

First: EKPYKCPECGEIFAHSSNLLCHQR [R21C]
Second: EKPYKCPECGEIFAHSSNLLDHQR [R21D]
The protein stability index of the first is lower: 3.98 for the first, 4.24 for the second.

Going from EKPYKCPECGEIFAHSSNLLEHQR [R21E] to EKPYKCPECGEIFAHSSNLLFHQR [R21F], the protein stability index falls from 4.38 to 3.04.

First: EKPYKCPECGEIFAHSSNLLGHQR [R21G]
Second: EKPYKCPECGEIFAHSSNLLHHQR [R21H]
The protein stability index of the first is lower: 2.01 for the first, 3.35 for the second.

Compared with EKPYKCPECGEIFAHSSNLLIHQR [R21I], EKPYKCPECGEIFAHSSNLLKHQR [R21K] is lower in protein stability index: 3.75 for the first, 3.51 for the second.

Compared with EKPYKCPECGEIFAHSSNLLLHQR [R21L], EKPYKCPECGEIFAHSSNLLMHQR [R21M] is higher in protein stability index: 2.82 for the first, 3.58 for the second.

Going from EKPYKCPECGEIFAHSSNLLNHQR [R21N] to EKPYKCPECGEIFAHSSNLLPHQR [R21P], the protein stability index rises from 3.29 to 3.43.

Going from EKPYKCPECGEIFAHSSNLLSHQR [R21S] to EKPYKCPECGEIFAHSSNLLTHQR [R21T], the protein stability index rises from 2.89 to 4.27.

Going from EKPYKCPECGEIFAHSSNLLVHQR [R21V] to EKPYKCPECGEIFAHSSNLLWHQR [R21W], the protein stability index rises from 2.85 to 3.43.

First: EKPYKCPECGEIFAHSSNLLYHQR [R21Y]
Second: EKPYKCPECGEIFAHSSNLLRAQR [H22A]
The protein stability index of the first is higher: 3.36 for the first, 2.88 for the second.

Going from EKPYKCPECGEIFAHSSNLLRCQR [H22C] to EKPYKCPECGEIFAHSSNLLRDQR [H22D], the protein stability index rises from 2.43 to 3.17.

Going from EKPYKCPECGEIFAHSSNLLREQR [H22E] to EKPYKCPECGEIFAHSSNLLRFQR [H22F], the protein stability index falls from 2.55 to 1.66.

Compared with EKPYKCPECGEIFAHSSNLLRGQR [H22G], EKPYKCPECGEIFAHSSNLLRIQR [H22I] is higher in protein stability index: 1.25 for the first, 1.34 for the second.

First: EKPYKCPECGEIFAHSSNLLRKQR [H22K]
Second: EKPYKCPECGEIFAHSSNLLRLQR [H22L]
The protein stability index of the first is higher: 2.16 for the first, 1.91 for the second.

Compared with EKPYKCPECGEIFAHSSNLLRMQR [H22M], EKPYKCPECGEIFAHSSNLLRNQR [H22N] is lower in protein stability index: 2.64 for the first, 2.35 for the second.

Compared with EKPYKCPECGEIFAHSSNLLRPQR [H22P], EKPYKCPECGEIFAHSSNLLRQQR [H22Q] is higher in protein stability index: 1.35 for the first, 1.54 for the second.

Going from EKPYKCPECGEIFAHSSNLLRRQR [H22R] to EKPYKCPECGEIFAHSSNLLRSQR [H22S], the protein stability index falls from 3.03 to 1.89.

Compared with EKPYKCPECGEIFAHSSNLLRTQR [H22T], EKPYKCPECGEIFAHSSNLLRWQR [H22W] is lower in protein stability index: 1.43 for the first, 1.23 for the second.

Compared with EKPYKCPECGEIFAHSSNLLRHAR [Q23A], EKPYKCPECGEIFAHSSNLLRHCR [Q23C] is higher in protein stability index: 2.21 for the first, 2.41 for the second.

First: EKPYKCPECGEIFAHSSNLLRHDR [Q23D]
Second: EKPYKCPECGEIFAHSSNLLRHER [Q23E]
The protein stability index of the first is lower: 1.82 for the first, 2.48 for the second.

First: EKPYKCPECGEIFAHSSNLLRHFR [Q23F]
Second: EKPYKCPECGEIFAHSSNLLRHGR [Q23G]
The protein stability index of the first is higher: 2.35 for the first, 1.82 for the second.

Going from EKPYKCPECGEIFAHSSNLLRHHR [Q23H] to EKPYKCPECGEIFAHSSNLLRHIR [Q23I], the protein stability index rises from 2.34 to 3.16.

Compared with EKPYKCPECGEIFAHSSNLLRHKR [Q23K], EKPYKCPECGEIFAHSSNLLRHLR [Q23L] is lower in protein stability index: 2.9 for the first, 2.86 for the second.

First: EKPYKCPECGEIFAHSSNLLRHMR [Q23M]
Second: EKPYKCPECGEIFAHSSNLLRHNR [Q23N]
The protein stability index of the first is higher: 3.02 for the first, 2.88 for the second.

Going from EKPYKCPECGEIFAHSSNLLRHPR [Q23P] to EKPYKCPECGEIFAHSSNLLRHTR [Q23T], the protein stability index rises from 2.11 to 2.25.

Going from EKPYKCPECGEIFAHSSNLLRHVR [Q23V] to EKPYKCPECGEIFAHSSNLLRHWR [Q23W], the protein stability index rises from 1.82 to 2.42.

Compared with EKPYKCPECGEIFAHSSNLLRHYR [Q23Y], EKPYKCPECGEIFAHSSNLLRHQA [R24A] is higher in protein stability index: 2.07 for the first, 4.17 for the second.

Going from EKPYKCPECGEIFAHSSNLLRHQC [R24C] to EKPYKCPECGEIFAHSSNLLRHQD [R24D], the protein stability index falls from 5.28 to 3.96.
